From PMC4915018, “Brain phosphorylation of MeCP2 at serine 164 is developmentally regulated and globally alters its chromatin association” come the findings set out here.

For this data set, the target named is MeCP2(74-172) WT (human, UniProt P51608 74-172). As to the kind of experiment: EMSA; subtly but consistently higher affinity for mCG; 10 mM Tris-HCl (pH not given), 50 mM KCl, 0.5 mM MgCl2, 0.1 mM EDTA, 5% glycerol, 0.1 mg/ml BSA, RT 30 min; 0-500 ng protein, 200 ng probe; 6% acrylamide, 1X TAE, ethidium bromide. To be noted: protein: recombinant; blunt.
Sequence of MeCP2(74-172) WT (P51608 74-172): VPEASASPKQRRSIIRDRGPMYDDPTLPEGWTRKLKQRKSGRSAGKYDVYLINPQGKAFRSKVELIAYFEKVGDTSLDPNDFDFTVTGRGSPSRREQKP

B1: CpG methylated probe (dsDNA)
DNA 1: CTAAAGGAAAAGTGACGCACTGTTTTACACCTTGGTTTT
DNA 2: AAAACCAAGGTGTAAAACAGTGCGTCACTTTTCCTTTAG
modifications: symmetric methyl-C at the only CpG (C16 of S1, C23 of S2; position inferred, bold marks lost)
Take B1: the binding result is given as “binds”.
